Publication PMC6123711, “Conformational signatures in β-arrestin2 reveal natural biased agonism at a G-protein-coupled receptor” (Communications Biology, 2018)

Legend:
[1] = test system: β-arrestin1–Galr2 interaction (Galr2); test: β-Arrestin1 recruitment using NanoBit technology; format: cell-based, human; details: for Log(τ/KA), β-Arrestin1: HEK293 cells, luminescence at 5 min after agonist, operational model (Eq. 2); for Log(τ/KA), β-Arrestin1 / ΔLog(τ/KA), β-Arrestin1: mean ± s.e.m. of three experiments in triplicate; for ΔLog(τ/KA), β-Arrestin1: normalized to Galanin (reference agonist), in parenthesis
Source text: The β-arrestin recruitment assays were developed based on a structural complementation assay using NanoBit technology. Briefly, NanoBit technology is a system that basically consists of Nano luciferase (Nluc), which is a small protein that catalyzes a bright luminescent reaction. To create a complementation system, Nluc was separated into two subunits that individually produce very little enzymatic activity. […] Because of this low affinity for each other, these two fragments can bind when they are in close proximity. The interaction between the LgBit and the SmBit can be driven by the interactions of the fusion partners, allowing them to study protein–protein interaction in live cells. As the interaction is reversible, the association and dissociation can be monitored. There is no lag time in the loss of luminescence, and so the immediate detection allows for accurate assessment of temporal dynamics. […] To accurately monitor β-arrestin recruitment, four plasmid combinations between LgBit and SmBit with the fusion partners Galr2 and β-arrestins were screened. The plasmid combination with the highest luminescence signal was chosen for further studies (Fig. 2a, Supplementary Fig. 1). Using data points at 5 min after ligand stimulation, we obtained dose–response curves that corresponded to β-arrestin1/2 recruitment (Fig. 2d, e, Supplementary Fig. 2).
Fig. 2 The effect of different endogenous ligands in β-arrestin1/2 recruitment. a Schematic representation of the structural complementation assay used to monitor β-arrestin1/2–Galr2 interactions. Kinetic traces of β-arrestin1 (b) and β-arrestin2 (c) recruitment after Galr2 activation with 1 μM of three different agonists. Dose–response curves for recruitment of β-arrestin1 (d), and β-arrestin2 (e). Luminescence signal intensity obtained at 5 min after agonist stimulation was measured. […] The results are expressed as mean ± s.e.m. of three experiments performed in triplicate; each triplicate was averaged before calculating the s.e.m. The arrows indicate the time at which the cells were treated with the different ligands
Quantification of bias between each pathway was performed using Galanin as a reference ligand. All incubations for the different signaling assays were performed in serum-free medium to prevent peptide degradation.
HEK293 cells were obtained from the American Type Culture Collection (ATCC, CRL-1573; Manassas, VA, USA). They were maintained in Dulbecco’s modified Eagle’s medium (DMEM) supplemented with 10% fetal bovine serum (FBS), 100 U/ml penicillin G, and 100 μg/ml streptomycin (Invitrogen; Carlsbad, CA, USA). During the experiments, the cells were tested for mycoplasma using a Universal Mycoplasma Detection Kit (ATCC). At 1 day before transfection, the cells were seeded in 96-well plates at a density of 2.5 × 10^4 cells per well. A mixture containing 50 ng β-arrestin construct containing the LgBit or SmBit and 50 ng Galr2 containing one of the two domains of Nluc and 0.2 μl Lipofectamine 2000 (Invitrogen) was prepared and added to each well. We tested four β-arrestin-Galr2 spatial orientations. […] After a 10-min incubation, 25 μl substrate (furimazine) was added and once every minute subsequent luminescence measurements were taken for 10 min for signal stabilization. A total of 10 μl ligand was then added to each well and luminescence measurements were recorded immediately and once every minute for 1 h (Synergy 2 Multi-Mode Microplate Reader BioTek, Winooski, VT, USA).

Galr2 [2] = test: β-Arrestin1/2-dependent Erk1/2 phosphorylation (Gαq/11-knockout HEK293 cells); format: cell-based, human; details: for ΔLog(τ/KA), β-Arrestin1/2 dependent-pErk1/2: normalized to Galanin (reference agonist), in parenthesis, mean ± s.e.m. of three experiments in triplicate; for Log(τ/KA), β-Arrestin1/2 dependent-pErk1/2: western blot, 5 min stimulation, operational model (Eq. 2), mean ± s.e.m. of three experiments in triplicate (table footnote)
Source text: Galr2 is primarily coupled to the Gαq-protein which activates the phospholipase C/protein kinase C pathway for inositol phosphate production. We measured G-protein activation in HEK293 cells transiently expressing Galr2, using the serum response element-luciferase (SRE-Luc) gene reporter assay[10],[37] and for a more specific monitoring of Gαq-protein activity we also measured total inositol phosphate production. […] However, some differences were observed between SRE-Luc activity and total inositol phosphate production in the rank order of potency of the tested ligands. […] Phosphorylation of extracellular signal-regulated protein kinases 1 and 2 (pErk1/2) is either G-protein or β-arrestin dependent. To distinguish Gαq-protein- and β-arrestin1/2-dependent Erk1/2 signaling, we examined ligand-stimulated Erk1/2 phosphorylation in three different HEK293 cell lines, wild type, Gαq/11-knockout, and β-arrestin1/2-knockout cells. All three ligands induced high levels of Erk1/2 phosphorylation dose-dependently in wild-type HEK293 cells.
Fig. 5 Galr2 agonists display different Gαq-protein-dependent signaling and pErk1/2. The ability of increasing concentrations of agonists to induce a SRE-Luc activity and b total inositol phosphate production. c Representative western blot showing ligand-induced phosphorylation of Erk1/2 from wild-type (HEK293 WT), Gαq/11-, and β-arrestin1/2-knockout HEK293 cells expressing Galr2 (original blots are presented in Supplementary Figure 4). pErk1/2 and total Erk levels were determined at 5 min after stimulation of different concentrations of three ligands. Western blot band intensities corresponding to each concentration were quantified using Image studio ^TM Software. […] Data are the mean ± s.e.m. values of two independent experiments
pErk1/2 was measured using western blot assay. HEK293 Gαq/11 and β-arrestin1/2-knockout cells were a kind gift from Professor Asuka Inoue, Tohoku University. The cells were seeded into 6-well plates at a density of 6 × 10^5 cells per well. The next day, they were transfected using 2 μg/well of plasmid containing human Galr2 cDNA and Lipofectamine 2000, according to the manufacturer’s instructions. Before assay, the cells were washed with phosphate-buffered saline and incubated in serum-free DMEM overnight. Dose–response experiments were performed for each ligand at 37 °C. Stimulation of the cells was terminated after 5 min of agonist stimulation by removing the medium, and the addition of 250 μl cold lysis buffer to each well. Immunoblots of phospho-Erk1/2 were obtained using 8 μg of total protein and p44/42 MAPK Erk1/2 antibody (Cell Signaling Technology Inc, catalog no. 4370 S); horseradish peroxidase-conjugated goat anti-rabbit IgG was used as a secondary antibody (Thermo Fisher Scientific). […]

Galr2 [3] = details: cited from earlier work
Source text: (§1) G-protein-coupled receptors (GPCRs) are the largest family of cell surface receptors that communicate extracellular stimuli to the cell interior[1]. Biased ligands are of particular interest because they offer the possibility to design a novel class of therapeutic agents. In some GPCRs, biased ligands that preferentially activate G-protein-dependent signaling have therapeutic potential. […] Most descriptions of biased ag ...

[4] = test system: galanin receptor 3 (Galr3); details: cited from earlier work
Source text: as §1

## Galanin [reference compound]
[1]
  Log(τ/KA), β-Arrestin1: 7.18 ± 0.01
  ΔLog(τ/KA), β-Arrestin1: 0.00 ± 0.01
Galr2 [2]
  ΔLog(τ/KA), β-Arrestin1/2 dependent-pErk1/2: 0.00 ± 0.40
  Log(τ/KA), β-Arrestin1/2 dependent-pErk1/2: 6.42 ± 0.41
Galr2 [3]
  affinity toward Galr2: high affinities
[4]
  affinity toward Galr3: low affinity

B1: Spexin (peptide, UniProt Q9BT56 27-116, looked up)
Spexin: APQRLLERRNWTPQAMLYLKGAQGRRFISDQSRRKDLSDRPLPERRSPNPQLLTIPEAATILLASLQKSPEDEEKNFDQTRFLEDSLLNW
modifications: Spexin
notes: endogenous peptide ligand of Galr2 and Galr3; synthesized by AnyGen
[1]
  Log(τ/KA), β-Arrestin1: 6.60 ± 0.08
  ΔLog(τ/KA), β-Arrestin1: −0.60 ± 0.01
[1]; dose–response, data at 5 min after ligand stimulation, compared with Galanin
  agonism in β-arrestin1 recruitment: partial agonists
Galr2 [2]
  ΔLog(τ/KA), β-Arrestin1/2 dependent-pErk1/2: 0.73 ± 0.13
  Log(τ/KA), β-Arrestin1/2 dependent-pErk1/2: 7.15 ± 0.14
Galr2 [3]
  activation of Galr2: activates Galr2 and Galr3 with high affinities
[4]
  activation of Galr3: activates Galr2 and Galr3 with high affinities
